Measurements reported in publication doi:10.1101/2025.04.23.650334.

T1: GdFen1 (Giardia duodenalis, UniProt A8B672 1-361)
T1 sequence: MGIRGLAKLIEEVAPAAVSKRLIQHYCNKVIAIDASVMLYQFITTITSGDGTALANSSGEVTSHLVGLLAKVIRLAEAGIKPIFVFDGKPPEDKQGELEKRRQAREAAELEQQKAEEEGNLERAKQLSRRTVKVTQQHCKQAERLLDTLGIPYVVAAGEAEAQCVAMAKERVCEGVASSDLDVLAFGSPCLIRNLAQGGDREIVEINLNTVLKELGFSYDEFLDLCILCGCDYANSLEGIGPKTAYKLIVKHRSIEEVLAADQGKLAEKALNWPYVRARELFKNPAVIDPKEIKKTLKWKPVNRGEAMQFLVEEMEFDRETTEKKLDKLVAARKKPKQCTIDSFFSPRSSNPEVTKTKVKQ

B1: Flap probe (structured_DNA)
DNA 1: CGCGGATCCCACTACGCCGATTTTTTTTTTTTTTTTTTTTACGTATGCCACGAATTCGCG
DNA 2: CGCGAATTCGTGGCATACGTAAAAAAAAAAAAAAAAAAAAGAGATGCGAGTCTAGACCGG
DNA 3: CCGGTCTAGACTCGCATCTC
B2: Bubble probe (structured_DNA)
DNA 1: B1 DNA 1
DNA 2: CGCGAATTCGTGGCATACGTTTTTTTTTTTTTTTTTTTTTTCGGCGTAGTGGGATCCGCG

Target: T1, GdFen1
Assay: EMSA

Row | Binder | binding result
1 | B1 | binds
2 | B2 | binds
